Results: US9266964
Where two headings read alike, the source gives them in different places.

Columns and labels:
[1] = target: T1, pKal catalytic domain Mutant 2 (human, UniProt P03952 391-638); assay: enzyme inhibition, Ki,app on mutant and wild type pKal catalytic domain
T1 construct: Expressed in Pichia pastoris, purified by IMAC; not shown: His tag fusion

human plasma kallikrein [2] = target: T2, human plasma kallikrein (human, UniProt P03952 20-390; P03952 391-638); assay: apparent inhibition constant (Ki,app) from enzyme inhibition of human pKal; Fab
T2 construct: two disulfide-linked chains; also called pKal; human pKal
T2 sequence (P03952 20-390, chain 1 of 2): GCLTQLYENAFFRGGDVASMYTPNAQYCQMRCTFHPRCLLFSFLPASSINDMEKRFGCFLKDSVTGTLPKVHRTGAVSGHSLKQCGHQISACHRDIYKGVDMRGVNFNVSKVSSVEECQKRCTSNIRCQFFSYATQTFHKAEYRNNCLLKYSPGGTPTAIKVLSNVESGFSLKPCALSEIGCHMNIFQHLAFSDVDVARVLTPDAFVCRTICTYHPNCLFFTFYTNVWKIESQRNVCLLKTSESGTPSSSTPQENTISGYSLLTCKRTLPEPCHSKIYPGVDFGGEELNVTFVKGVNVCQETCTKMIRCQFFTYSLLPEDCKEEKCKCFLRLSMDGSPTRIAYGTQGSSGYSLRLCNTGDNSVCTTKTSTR
T2 sequence (P03952 391-638, chain 2 of 2): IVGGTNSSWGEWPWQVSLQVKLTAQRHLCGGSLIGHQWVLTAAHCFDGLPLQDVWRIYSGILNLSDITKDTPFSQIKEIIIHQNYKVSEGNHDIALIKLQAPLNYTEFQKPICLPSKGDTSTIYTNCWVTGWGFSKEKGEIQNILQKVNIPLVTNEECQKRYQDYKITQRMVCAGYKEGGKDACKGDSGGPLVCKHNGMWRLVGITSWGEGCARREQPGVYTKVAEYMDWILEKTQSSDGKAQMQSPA

mouse plasma kallikrein [3] = target: T3, mouse plasma kallikrein (mouse, UniProt P26262 20-638, limits assumed); assay: apparent inhibition constant (Ki,app) from enzyme inhibition of rodent pKal
T3 construct: also called mouse pKal; rodent pKal
T3 sequence (P26262 20-638 limits assumed): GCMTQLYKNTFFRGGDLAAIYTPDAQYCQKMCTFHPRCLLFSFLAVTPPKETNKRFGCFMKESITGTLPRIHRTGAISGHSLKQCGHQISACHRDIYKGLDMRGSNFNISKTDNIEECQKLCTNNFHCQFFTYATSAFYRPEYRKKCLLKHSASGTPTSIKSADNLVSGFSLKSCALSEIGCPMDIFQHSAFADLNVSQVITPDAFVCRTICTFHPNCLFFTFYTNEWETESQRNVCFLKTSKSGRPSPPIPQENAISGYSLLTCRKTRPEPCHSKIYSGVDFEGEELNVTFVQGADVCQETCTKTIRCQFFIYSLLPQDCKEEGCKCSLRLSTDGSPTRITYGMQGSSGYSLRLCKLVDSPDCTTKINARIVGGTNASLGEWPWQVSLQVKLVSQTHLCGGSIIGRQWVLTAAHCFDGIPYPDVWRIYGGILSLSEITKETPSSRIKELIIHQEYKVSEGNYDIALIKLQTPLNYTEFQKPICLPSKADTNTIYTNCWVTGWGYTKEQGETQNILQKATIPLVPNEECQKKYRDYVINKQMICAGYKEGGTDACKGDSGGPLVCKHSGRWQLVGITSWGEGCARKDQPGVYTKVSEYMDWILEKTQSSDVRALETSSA

[4] = target: T4, human plasma kallikrein (active form) (human, UniProt P03952 20-390; P03952 391-638); assay: apparent Ki (Ki,app), inhibition of human pKal enzyme activity
T4 construct: also called pKal; human pKal
T4 sequence (P03952 20-390, chain 1 of 2): as the sequence (P03952 20-390, chain 1 of 2) above
T4 sequence (P03952 391-638, chain 2 of 2): as the sequence (P03952 391-638, chain 2 of 2) above

mouse plasma kallikrein [5] = target: T5, mouse plasma kallikrein (mouse, UniProt P26262 20-638, limits assumed); assay: apparent Ki (Ki,app), inhibition of rodent pKal enzyme activity
T5 construct: also called mouse pKal
T5 sequence (P26262 20-638 limits assumed): as the sequence (P26262 20-638 limits assumed) above

human plasma kallikrein [6] = target: T6, human plasma kallikrein (human, UniProt P03952 20-390; P03952 391-638); assay: Ki,app as an IgG, steady state enzyme kinetics, inhibition of human pKal
T6 construct: two disulfide linked chains; also called pKal; human pKal
T6 sequence (P03952 20-390, chain 1 of 2): as the sequence (P03952 20-390, chain 1 of 2) above
T6 sequence (P03952 391-638, chain 2 of 2): as the sequence (P03952 391-638, chain 2 of 2) above

human plasma kallikrein [7] = target: T6, human plasma kallikrein; assay: Ki,app of IgG, enzyme inhibition of human pKal
human plasma kallikrein [8] = target: T2, human plasma kallikrein; assay: apparent inhibition constant (Ki,app) from enzyme inhibition of human pKal; IgG
rat plasma kallikrein [9] = target: T7, rat plasma kallikrein (rat, UniProt P14272 20-638, limits assumed); assay: apparent inhibition constant (Ki,app) from enzyme inhibition of rodent pKal
T7 construct: also called rat pKal; rodent pKal
T7 sequence (P14272 20-638 limits assumed): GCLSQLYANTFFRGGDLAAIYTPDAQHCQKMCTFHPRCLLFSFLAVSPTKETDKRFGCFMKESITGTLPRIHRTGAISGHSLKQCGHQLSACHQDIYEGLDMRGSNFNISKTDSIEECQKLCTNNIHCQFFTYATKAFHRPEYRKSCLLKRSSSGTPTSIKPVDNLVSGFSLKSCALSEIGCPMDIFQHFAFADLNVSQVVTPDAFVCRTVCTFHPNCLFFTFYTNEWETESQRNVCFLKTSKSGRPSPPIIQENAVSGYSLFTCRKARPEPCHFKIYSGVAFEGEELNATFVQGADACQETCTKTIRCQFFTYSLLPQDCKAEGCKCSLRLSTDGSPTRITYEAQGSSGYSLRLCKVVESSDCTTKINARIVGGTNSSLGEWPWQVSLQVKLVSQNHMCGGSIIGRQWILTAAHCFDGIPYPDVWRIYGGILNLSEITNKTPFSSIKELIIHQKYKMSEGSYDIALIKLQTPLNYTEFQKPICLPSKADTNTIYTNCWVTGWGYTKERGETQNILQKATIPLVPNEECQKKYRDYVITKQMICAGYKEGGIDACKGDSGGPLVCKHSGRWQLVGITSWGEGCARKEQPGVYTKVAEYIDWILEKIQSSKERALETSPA

human plasma kallikrein [10] = target: T6, human plasma kallikrein; assay: Ki,app, enzyme inhibition of pKal, Fab
[11] = target: T4, human plasma kallikrein (active form); assay: apparent Ki (Ki,app), inhibition of human pKal enzyme activity; remark: listed apart in the source
Protocol: (§1) Apparent Inhibition constants (K_{i,app} values) were measured by pre-incubating enzyme and inhibitor solutions prior to initiating the reactions with substrate. Enzyme and inhibitor were pre-incubated for 2 hours at 30° C. in a 96-well plate by adding 10 μL of a 10× enzyme solution and 10 μL of 10× inhibitor solutions to 70 μL of reaction buffer. Reactions were initiated by the addition of 10 μL of a 10× concentrated stock of substrate, and were monitored at 30° C. in a fluorescence plate reader with the excitation and emission wavelengths set at 360 nm/460 nm, respectively. Kinetic data were acquired by the increase in fluorescence, and initial rates for each condition were plotted against the total inhibitor concentration. The data was fit to the following equation for tight binding inhibitors: […]

mouse plasma kallikrein [12] = target: T5, mouse plasma kallikrein; assay: apparent Ki (Ki,app), inhibition of mouse pKal enzyme activity
Protocol: as §1

rat plasma kallikrein [13] = target: T8, rat plasma kallikrein (rat, UniProt P14272 20-638, limits assumed); assay: apparent Ki (Ki,app), inhibition of rodent pKal enzyme activity
T8 construct: also called rat pKal
T8 sequence (P14272 20-638 limits assumed): as above

human plasma kallikrein [14] = target: T6, human plasma kallikrein; assay: Ki,app, enzyme inhibition of pKal, IgG
human plasma kallikrein [15] = target: T6, human plasma kallikrein; assay: Ki,app, enzyme inhibition of pKal; antibody format not stated

T1 sequence (P03952 other isoform, or with tags, fused parts or gaps mutant limits assumed): as the sequence (P03952 391-638, chain 2 of 2) above, with R161A, Q163A, Y165A, T168A, R170A counted along it

B1: M6-D09 (antibody, V domains shown)
VH: EVQLLESGGGLVQPGGSLRLSCAASGFTFSFYYMVWVRQAPGKGLEWVSVIYPSGGITVYADSVKGRFTISRDNSKNTLYLQMNSLRAEDTAVYYCARDKWAVMPPYYYYAMDVWGQGTTVTVSS
VL: DIQMTQSPSSLSASVGDRVTITCRASQSIRNYLNWYQQKPGKAPNLLIYAASTLQSGVPARFSGSGSGTDFTLTISSLQPEDFATYYCQQLSGYPHTFGQGTKLEIK
notes: Group 3 antibody; also called M06-D09; 559A-M06-D09
[1]
  fold increase of Ki,app against the wild type catalytic domain: ~5 fold

B2: M142-H08 (Fab) (Fab, V domains shown)
VH: EVQLLESGGGLVQPGGSLRLSCAASGFTFSAYSMIWVRQAPGKGLEWVSYIRPSGGRTTYADSVKGRFTISRDNSKNTLYLQMNSLRAEDTAVYYCARGGLLLWFRELKSNYFDYWGQGTLVTVSS
VL: DIQMTQSPSSLSAFVGDRVTITCRASQPIDNYLNWYHQKPGKAPKLLIYAASRLQSGVPSRLSGSGFGTDFTLTISSLQPEDFGNYYCQQSYTVPYTFGGGTKVEIR
notes: Fab; printed HC runs into the start of CH1
Human plasma kallikrein [2]
  Ki: 0.6 nM
Mouse plasma kallikrein [3]
  Ki: ~1 nM

B3: X67-D03 (antibody, V domains shown)
VH: EVQLLESGGGLVQPGGSLRLSCAASGFTFSAYSMIWVRQAPGKGLEWVSYIRPSGGRTTYADSVKGRFTISRDNSKNTLYLQMNSLRAEDTAVYYCARGGLLLWNRELKSNYFDYWGQGTLVTVSS
VL: DIQMTQSPSSLSAFVGDRVTITCRASQPIDNYLNWYHQKPGKAPKLLIYAASRLQSGVPSRLSGSGFGTDFTLTISSLQPEDFGNYYCQQSYTVPYTFGGGTKVEIR
notes: Tested as IgG; Single point mutant (F to N in HC CDR3) of M142-H08; also called X67-D03 (IgG); 559A-X67-D03
[4]
  Ki: 0.1 nM
Mouse plasma kallikrein [5]
  Ki: 0.7 nM

B4: X67-D03 (IgG) (antibody, V domains shown)
VH: EVQLLESGGGLVQPGGSLRLSCAASGFTFSAYSMIWVRQAPGKGLEWVSYIRPSGGRTTYADSVKGRFTISRDNSKNTLYLQMNSLRAEDTAVYYCARGGLLLWNRELKSNYFDYWGQGTLVTVSS
VL: DIQMTQSPSSLSAFVGDRVTITCRASQPIDNYLNWYHQKPGKAPKLLIYAASRLQSGVPSRLSGSGFGTDFTLTISSLQPEDFGNYYCQQSYTVPYTFGGGTKVEIR
notes: printed HC runs into CH1; also called 559A-X67-D03
Human plasma kallikrein [6]
  Ki: 0.1 nM
Human plasma kallikrein [7]
  Ki: 0.1 nM

B5: X67-G04 (IgG) (antibody, V domains shown)
VH: EVQLLESGGGLVQPGGSLRLSCAASGFTFSAYSMIWVRQAPGKGLEWVSYIRPSGGRTTYADSVKGRFTISRDNSKNTLYLQMNSLRAEDTAVYYCARGGLLLWARELKSNYFDYWGQGTLVTVSS
VL: DIQMTQSPSSLSAFVGDRVTITCRASQPIDNYLNWYHQKPGKAPKLLIYAASRLQSGVPSRLSGSGFGTDFTLTISSLQPEDFGNYYCQQSYTVPYTFGGGTKVEIR
notes: printed HC runs into CH1
Human plasma kallikrein [6]
  Ki: 0.35 nM
Human plasma kallikrein [7]
  Ki: 0.35 nM

B6: M162-A04 (IgG) (antibody, V domains shown)
VH: EVQLLESGGGLVQPGGSLRLSCAASGFTFSHYIMMWVRQAPGKGLEWVSGIYSSGGITVYADSVKGRFTISRDNSKNTLYLQMNSLRAEDTAVYYCAYRRTGIPRRDAFDIWGQGTMVTVSS
VL: DIQMTQSPSTLSASVGDRVTITCRASQSISSWLAWYQQKPGKAPNLLIYKASTLESGVPSRFSGSGSGTEFTLTISSLQPDDFATYYCQQYNTYWTFGQGTKVEIK
notes: Human IgG; also called R84-H05; 559A-M0162-A04
Human plasma kallikrein [8]
  Ki: 2 nM
Mouse plasma kallikrein [3]
  Ki: 2 nM
Rat plasma kallikrein [9]
  Ki: 2 nM

B7: M160-G12 (IgG) (antibody, V domains shown)
VH: EVQLLESGGGLVQPGGSLRLSCAASGFTFSHYLMTWVRQAPGKGLEWVSYISPSGGHTIYADSVKGRFTISRDNSKNTLYLQMNSLRAEDTAVYYCARVARGIAARSRTSYFDYWGQGTLVTVSS
VL: DIQMTQSPSFLSASVGDRVTITCRASQGISSYLAWYQQKPGKAPKLLIYAASTLQSGVPSRFSGSGSGTEFTLTISSLQPEDFATYYCQQLNSYPLTFGGGTKVEIK
notes: Human IgG; also called R84-D02
Human plasma kallikrein [8]
  Ki: 5.6 nM
Mouse plasma kallikrein [3]
  Ki: < 1 nM

B8: X63-G06 (Fab, V domains shown)
VH: EVQLLESGGGLVQPGGSLRLSCAASGFTFSHYLMTWVRQAPGKGLEWVSYISPSGGHTIYADSVKGRFTISRDNSKNTLYLQMNSLRAEDTAVYYCARVARGIAARSRTSYFDYWGQGTLVTVSS
VL: DIQMTQSPGTLSLSPGERATLSCRTSQFVNSNYLAWYQQTPGQAPRLLIYGASSRATGIPDRFSGTGYGTDFTLTISRLEPEDYGTYYCQQSSRTPWTFGQGTRVEIK
notes: Non-germlined Fab discovered using ROLIC, same HC but different LC as M160-G12; also called X63-G06 (Fab)
Human plasma kallikrein [10]
  Ki: 0.4 nM

B9: X81-B01 (antibody, V domains shown)
VH: EVQLLESGGGLVQPGGSLRLSCAASGFTFSHYLMTWVRQAPGKGLEWVSYISPSGGHTIYADSVKGRFTISRDNSKNTLYLQMNSLRAEDTAVYYCARVARGIAARSRTSYFDYWGQGTLVTVSS
VL: EIVLTQSPGTLSLSPGERATLSCRTSQFVNSNYLAWYQQKPGQAPRLLIYGASSRATGIPDRFSGSGSGTDFTLTISRLEPEDFAVYYCQQSSRTPWTFGQGTKVEIK
notes: also called X81-B01 (IgG); 559A-X81-B01
[11]
  Ki: 0.1 nM
Mouse plasma kallikrein [12]
  Ki: 0.011 nM
[4]
  Ki: 0.2 nM
Rat plasma kallikrein [13]
  Ki: 0.14 nM
Mouse plasma kallikrein [5]
  Ki: 0.011 nM

B10: X81-B01 (antibody, V domains shown)
VH: EVQLLESGGGLVQPGGSLRLSCAASGFTFSHYLMTWVRQAPGKGLEWVSYISPSGGHTIYADSVKGRFTISRDNSKNTLYLQMNSLRAEDTAVYYCARVARGIAARSRTSYFDYWGQGTLVTVSS
VL: EIVLTQSPGTLSLSPGERATLSCRTSQFVNSNYLAWYQQKPGQAPRLLIYGASSRATGIPDRFSGSGSGTDFTLTISRLEPEDFAVYYCQQSSRTPWTFGQGTKVEIK
notes: also called X81-B01 (IgG)
Human plasma kallikrein [14]
  Ki: 0.2 nM

B11: X64-F04 (antibody, V domains shown)
VH: EVQLLESGGGLVQPGGSLRLSCAASGFTFSHYLMTWVRQAPGKGLEWVSYISPSGGHTIYADSVKGRFTISRDNSKNTLYLQMNSLRAEDTAVYYCARVARGIAARSRTSYFDYWGQGTLVTVSS
VL: DIQMTQSPATLSLSPGERATLSCRASQIVSSNYLAWYQQKPGQAPRLLIYGASNRATGIPDRFSGSGSGTEFTLTISSLQSEDFAIYYCQQSFNIPYTFGQGTRVDIK
notes: Found by ROLIC light chain shuffling
Human plasma kallikrein [15]
  Ki: 1.9 nM

B12: X63-G10 (antibody, V domains shown)
VH: EVQLLESGGGLVQPGGSLRLSCAASGFTFSHYLMTWVRQAPGKGLEWVSYISPSGGHTIYADSVKGRFTISRDNSKNTLYLQMNSLRAEDTAVYYCARVARGIAARSRTSYFDYWGQGTLVTVSS
VL: DIQMTQSPDSLSASVGDRVTITCRASQSISNYLNWYQQKPGKAPKLLIYAASSLQSGVPSRFSGSGSGTDFTLTISGLQPEDFASYYCQQSYTSPYTFVQGTKLEIKR
notes: as for B11
Human plasma kallikrein [15]
  Ki: 9 nM
